Source: publication PMC2191977 (The Journal of Experimental Medicine, 1995)
Substitutions are numbered along the chain they refer to.

Legend:
Assay in all cases: flow cytometry on cells
[1] = biological target: T1, B7 R175S (mouse, UniProt Q00609 38-306, R175>S (CGC>AGC))
T1 sequence (looked up): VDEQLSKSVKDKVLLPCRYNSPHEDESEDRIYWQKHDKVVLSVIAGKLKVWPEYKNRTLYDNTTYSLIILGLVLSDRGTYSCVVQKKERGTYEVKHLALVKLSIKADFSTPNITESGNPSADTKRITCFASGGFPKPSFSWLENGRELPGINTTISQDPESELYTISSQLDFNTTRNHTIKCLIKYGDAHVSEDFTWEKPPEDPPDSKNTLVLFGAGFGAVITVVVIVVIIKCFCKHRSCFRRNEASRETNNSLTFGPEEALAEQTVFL

[2] = biological target: T2, B7 QD/LE (Q194L, D195E) (mouse, UniProt Q00609 38-306, Q194D195>LE)
T2 sequence (looked up): T1 sequence (looked up) with S138R, Q157L, D158E

[3] = biological target: T3, B7 K173E (mouse, UniProt Q00609 38-306, K173E)
T3 sequence (looked up): T1 sequence (looked up) with K136E, S138R

[4] = biological target: T4, B7 Y201A (mouse, UniProt Q00609 38-306, Y201A)
T4 sequence (looked up): T1 sequence (looked up) with S138R, Y164A

[5] = biological target: T5, B7 E180D (mouse, UniProt Q00609 38-306, E180D)
T5 sequence (looked up): T1 sequence (looked up) with S138R, E143D

[6] = biological target: T6, B7 LE/VD (L179V, E180D) (mouse, UniProt Q00609 38-306, L179E180>VD)
T6 sequence (looked up): T1 sequence (looked up) with S138R, L142V, E143D

B1: CD28Ig (Fc fusion, mouse, UniProt P31041 20-150, looked up)
chain: NKILVKQSPLLVVDSNEVSLSCRYSYNLLAKEFRASLYKGVNSDVEVCVGNGNFTYQPQFRSNAEFNCDGDFDNETVTFRLWNLHVNHTDIYFCKIEFMYPPPYLDNERSNGTIIHIKEKHLCHTQSSPKL
For B1, the “% wild-type B7 binding (normalised to anti-B7 mAb 10.16A.1)” value [1] was 26%, the “MF (mean fluorescence, control subtracted)” value (shortened to “MF”) [1] was 15 MF and the “% wild-type B7 binding (normalised to anti-B7 mAb 10.16A.1)” value [2] was 11%. For the same binder, the “MF” value [2] was 3 MF, the “% wild-type B7 binding (normalised to anti-B7 mAb 10.16A.1)” value [3] was 77% and the “MF” value [3] was 44 MF. The “% wild-type B7 binding (normalised to anti-B7 mAb 10.16A.1)” value [4] was 3%, the “MF” value [4] was 1 MF and the “% wild-type B7 binding (normalised to anti-B7 mAb 10.16A.1)” value [5] was 68%. The “MF” value [5] was 38 MF, the “% wild-type B7 binding (normalised to anti-B7 mAb 10.16A.1)” value [6] was 40% and the “MF” value [6] was 16 MF.
